Like-named read-outs stand apart in the source and are kept apart here. Ends that are not written are not given here.
Experiments:
[1] = biological target: T1, MLL4PHD2/3 (Homo sapiens, UniProt O14686); assay: NMR titration binding, WT MLL4PHD2/3; details: 0.1 mM protein; for binding in NMR titration (CSPs): 1H,15N HSQC, pH 6.8, 298 K, in words
T1 construct: MLL4 (aa 227-324); GST (N, cleaved yes); made in house; host or cells: E. coli BL21-CodonPlus
T1 sequence (O14686 227-324): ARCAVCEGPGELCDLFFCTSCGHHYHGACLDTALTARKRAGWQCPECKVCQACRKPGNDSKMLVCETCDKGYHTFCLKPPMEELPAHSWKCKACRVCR
Description: (§1) All constructs were expressed in BL21-CodonPlus competent cells.
(§2) For NMR titration experiments, ^1H,^15N HSQC spectra of 0.1 mM uniformly ^15N-labeled WT or mutated MLL4PHD2/3, MLL3PHD2/3 or MLL3PHD4 were recorded while WT or mutated ASXL2 (aa 650-670, 650-664, 656-670) and ASXL3 (aa 1047-1067) peptides (synthesized by SynPeptide) or MLL3PHD2/3 were added stepwise. All experiments were carried out in 20 mM Tris buffer (pH 6.8), 150 mM NaCl, and 3 mM DTT, containing 7% D2O. The dissociation constants (Kds) were determined by a nonlinear least-squares analysis in GraphPad Prism using the equation:1 △δ=△δmaxL+P+Kd−L+P+Kd^2−4PL/2P where [L] is concentration of the peptide, [P] is concentration of the protein, Δδ is the observed chemical shift change, and Δδmax is the normalized chemical shift change at saturation. Normalized chemical shift changes were calculated using the equation Δδ=△δH^2+△sn/5^2 (2), where Δδ is the change in chemical shift in parts per million (ppm).

[2] = biological target: T2, MLL3PHD2/3 (Homo sapiens, UniProt Q8NEZ4); assay: NMR titration binding, WT MLL3PHD2/3; details: 0.1 mM protein
T2 construct: human MLL3 (aa 342-439); GST (N, cleaved yes); made in house; host or cells: E. coli BL21-CodonPlus
T2 sequence (Q8NEZ4 342-439): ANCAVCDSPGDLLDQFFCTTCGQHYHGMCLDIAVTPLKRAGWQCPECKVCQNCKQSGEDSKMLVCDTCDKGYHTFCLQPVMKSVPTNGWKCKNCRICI
Description: as §1, §2

[3] = tested on: GST-MLL3PHD2/3; assay: GST pull-down, WT MLL3PHD2/3; type: binding, human; details: WT GST-MLL3PHD2/3; HEK293FT lysate, 3 h at 4 °C, western blot; n = 3
Description: (§3) Pull-down assays were performed by mixing resin-bound GST-MLL3PHD2/3 and GST-MLL4PHD2/3 (wild type and mutants) with lysates of HEK293FT expressing Myc-ASXL1, Myc-ASXL2 or Myc-ASXL2ΔMBH. Pellets of HEK293FT cells transfected with the appropriate pDEST expression construct (15 μg/dish using polyethylenimine (PEI)) were lysed with 10 times their volume of lysis buffer (50 mM Tris pH 7.3, 100 mM NaCl, 1 mM DTT, 1 mM EDTA, 1 mM PMSF, 0.1% Tween20, 1/100 anti-protease (Sigma)) and sonicated with a probe sonicator (Branson digital sonifier 450) calibrated at 40% amplitude for 3–4 rounds during 40–60 s. Lysates were then centrifuged in a Sorvall Lynx 6000 (rotor: F21-8x50Y) at 15,000 RPM during 20 min. Approximatively 9 μg of purified GST-fusion proteins bound to GSH resin (Sigma, G4510) were used for each condition. Final volume of GSH resin was adjusted to 30 μl per condition with empty GSH beads and incubated with 1.5 mL of HEK293FT lysate expressing Myc-ASXL1, Myc-ASXL2 or Myc-ASXL2ΔMBH for 3 h at 4 °C on a rotative system. A fraction of the reaction mixture (80 μL) was collected as the input. After the incubation, beads were washed 5 times and mixed with 100 μL of Laemmli buffer. Samples were loaded on 8% or 15% SDS-acrylamide gels and processed for western blotting.

[4] = tested on: GST-MLL4PHD2/3; assay: GST pull-down, WT MLL4PHD2/3; type: binding, human; details: WT GST-MLL4PHD2/3; HEK293FT lysate, 3 h at 4 °C, western blot; n = 3
Description: as §3

[5] = tested on: MLL4PHD2/3 or MLL3PHD2/3 mutants; assay: GST pull-down, mutated MLL3/4PHD2/3; type: binding, human; details: mutated GST-MLL3/4PHD2/3; HEK293FT lysate, 3 h at 4 °C, western blot; n = 3
Description: as §3

[6] = biological target: T3, PHD2 and PHD3 fingers of human MLL3 (aa 342-439) (human, UniProt Q8NEZ4 342-439)
T3 chain: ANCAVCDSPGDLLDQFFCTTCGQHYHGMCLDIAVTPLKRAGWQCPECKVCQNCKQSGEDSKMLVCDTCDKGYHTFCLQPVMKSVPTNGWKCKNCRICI

[7] = biological target: T4, PHD2 and PHD3 fingers of human MLL4 (aa 227-324) (human, UniProt O14686 227-324); assay: not stated; fluorescence spectroscopy or NMR: the legends of Fig. 3c and Fig. 4b say that values marked (a) are from NMR and the others from fluorescence; the text does not tell which for these pairs; details: both partners purified
T4 construct: PHD2 and PHD3 fingers of human MLL4 (KMT2D), aa 227-324; also called MLL4_(PHD2/3); MLL4 PHD2/3; source: E. coli BL21-CodonPlus, purified (glutathione agarose, PreScission cleavage; unlabeled proteins also SEC)
T4 sequence (looked up): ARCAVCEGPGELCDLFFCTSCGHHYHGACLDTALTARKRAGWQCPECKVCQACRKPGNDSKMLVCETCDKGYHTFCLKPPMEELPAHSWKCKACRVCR

[8] = biological target: T5, PHD2 and PHD3 fingers of human MLL3 (aa 342-439) (human, UniProt Q8NEZ4 342-439); assay: other fluorescence titration; tryptophan fluorescence, 25 °C; 1.0 µM MLL4 PHD2/3 or MLL3 PHD2/3 with increasing peptide; excitation 295 nm; 20 mM Tris pH 7.2, 150 mM NaCl, 1 mM TCEP, 0.02% Tween20; average of three measurements; details: both partners purified
T5 construct: PHD2 and PHD3 fingers of human MLL3 (KMT2C), aa 342-439; 15N-labelled for NMR titrations; also used unlabelled as the titrant against MLL3 PHD4; also called MLL3_(PHD2/3); MLL3 PHD2/3; source: E. coli BL21-CodonPlus, purified (glutathione agarose, PreScission cleavage; unlabeled proteins also SEC)
T5 sequence (looked up): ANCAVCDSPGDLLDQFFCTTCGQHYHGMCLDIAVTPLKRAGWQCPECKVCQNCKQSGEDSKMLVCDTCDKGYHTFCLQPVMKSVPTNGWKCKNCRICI

[9] = biological target: T4, PHD2 and PHD3 fingers of human MLL4 (aa …); assay: as above; details: both partners purified
[10] = NMR, 1H,15N HSQC titration, 20 mM Tris pH 6.8, 150 mM NaCl, 298 K

Molecule	binding in NMR titration (CSPs) [1]	Kd [8] [µM]	Kd [9] [µM]	other results
ASXL1 peptide: ASXL1 peptide; the ASXL1 region encompassing residues 607-627 (GWTGARTLADIKARALQVRGA)	large CSPs, confirming formation of the complex			
ASXL2 K661E: K661E mutated ASXL2 peptide (residues 650-670) (NRTGARTLADIEAKAQLVKAQ)	abrogated binding			Kd [1, 10]: no binding; binding in NMR titration (CSPs) ([2]; 1H,15N HSQC, pH 6.8, 298 K, in words): did not form the complex; Kd [2, 10]: no binding
RNTGARTLADIKARAQQARAQ [ASXL3 1047-1067]	large CSPs, confirming formation of the complex			
full-length ASXL1: full-length ASXL1 expressed in HEK293FT cells				association in pull-down [3]: detected; association in pull-down [4]: detected; association in pull-down [5]: not with the MLL4PHD2/3 or MLL3PHD2/3 mutants
NRTGARTLADEKAKAQLVKAQ (peptide, UniProt Q76L83 650-670, looked up, ASXL2, residues 650-670; also called I660E mutant of ASXL2; source: synthetic peptide (SynPeptide)) [ASXL2 peptide (aa 650-670) I660E]				Kd [6]: 84 µM; Kd [7]: 1100 µM; binding result [8]: binds
RNTGARTLADIKARAQQARAQ (peptide, UniProt Q9C0F0 1047-1067, looked up, ASXL3, residues 1047-1067; also called ASXL3 (aa 1047-1067); source: synthetic peptide (SynPeptide)) [ASXL3 peptide (aa 1047-1067)]		0.9	1.4	
NRTGARTLADIKAKA (peptide, UniProt Q76L83 650-664, looked up, ASXL2, residues 650-664; also called ASXL2_(650-664); ASXL2 (aa 650-664); source: synthetic peptide (SynPeptide)) [ASXL2 peptide, residues 650-664]		28	98	
TLADIKAKAQLVKAQ (peptide, UniProt Q76L83 656-670, looked up, ASXL2, residues 656-670; also called ASXL2_(656-670); ASXL2 (aa 656-670); source: synthetic peptide (SynPeptide)) [ASXL2 peptide, residues 656-670]		133	700	

Source: PMC11161652, “ASXLs binding to the PHD2/3 fingers of MLL4 provides a mechanism for the recruitment of BAP1 to active enhancers” (Nature Communications, 2024)
